Laboratory results as given in PMC6007841.

Target: human melanocortin 1 receptor (human) (UniProt Q01726)
Sequence (Q01726 whole entry): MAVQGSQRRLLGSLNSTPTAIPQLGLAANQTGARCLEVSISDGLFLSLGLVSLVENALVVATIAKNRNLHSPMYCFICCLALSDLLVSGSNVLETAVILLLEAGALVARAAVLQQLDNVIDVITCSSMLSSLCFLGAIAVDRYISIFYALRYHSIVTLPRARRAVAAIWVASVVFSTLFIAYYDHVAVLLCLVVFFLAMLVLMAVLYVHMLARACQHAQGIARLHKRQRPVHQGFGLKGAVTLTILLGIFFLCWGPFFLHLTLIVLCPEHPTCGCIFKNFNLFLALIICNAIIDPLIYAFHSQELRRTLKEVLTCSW

cAMP agonist EC50 (AlphaScreen cAMP assay, HEK293 cells expressing the receptor): 4.5 µM
Binder: DQYKCLQHGGFCLRSSCPSNTKLQGTCKPDKPNCCKS (reduced, linear form) [mouse β-defensin 1, linear, reduced form]
